Read-outs that look alike come from different tables or passages of the source.
B1: VHH B-siGFPst1: siGFPst1 conjugated to VHH B (conjugate)
VHH: EVQLVESGGGVVQPGGSLRLSCAASGEIFSINFMRWYRQAPGKQREWVAGFTRDGSTNYPDSAKGRFTISRDNAKNTVYLQIDSLKPEDTAVYYCYMLDTWGQGTQVTVSSAAAEQKLISEEDLNGAAHHHHHHGS
B2: VHH A-siGFPst1: siGFPst1 conjugated to a tagged VHH A (conjugate)
VHH: EVQLVESGGGVVQPGGSLKLSCVASGTDFSINFIRWYRQAPGKQREFVAGFTATGNTNYADSMKGRFTISRDNTKNAVYLQIDSLKPEDTAVYYCYMLDKWGQGTQVTVSSAAAEQKLISEEDLNGAAHHHHHHGS
B3: VHH A-NODAGA: VHH A-azide reacted with NODAGA-BCN (conjugate)
VHH: EVQLVESGGGVVQPGGSLKLSCVASGTDFSINFIRWYRQAPGKQREFVAGFTATGNTNYADSMKGRFTISRDNTKNAVYLQIDSLKPEDTAVYYCYMLDKWGQGTQVTVSSAAAEQKLISEEDLNGAAHHHHHHGSAAAHHHHHHGGGLQR
B4: VHH A-68Ga: VHH A-NODAGA radiolabeled using 68Ga chloride (conjugate)
VHH: B3 VHH

How the values were obtained:
GFP [1] = details: for reduction of GFP protein levels: 120 hrs at 37°C
Experimental: Third, the ability of the VHH A, once conjugated to siGFPst1, to trigger hTfR-mediated endocytosis and subsequent delivery into the cytosol of target cells in pharmacological amounts was assessed. The VHH A-siGFPst1 or the control VHH Z-siGFPst1 bioconjugates were incubated on CHO-hTfR-GFP cells at 1 µM during 120 hrs at 37°C to allow free uptake, delivery to the cytosol and gene silencing to take place at the mRNA transcript and protein levels. […] Next, the VHH A-siGFPst1 bioconjugate was incubated on CHO-hTfR-GFP cells at concentrations ranging from 3 µM to 10 pM during 120 hrs.
Fifth, the TfR-mediated GFP-silencing effect of the VHH A-siGFPst1 bioconjugate was evaluated using a pulse-chase procedure. CHO-hTfR-GFP cells were exposed to VHH A-siGFPst1 at concentrations ranging from 300 nM to 1 pM during a short duration (6 hours), followed by chase in ligand-free medium up to a total duration of 120 hrs.
Finally, the ability of the VHH B to trigger hTfR-mediated endocytosis and subsequent gene silencing was evaluated by incubating the VHH B-siGFPst1 bioconjugate on CHO-hTfR-GFP cells at 30 nM during 120 hrs. […] To the best of our knowledge, receptor-mediated hepatocyte uptake through the asialoglycoprotein receptor (ASGPR) using triantennary GalNAc as a targeting ligand is the only ligand/receptor system able to trigger specific and efficient gene silencing at nanomolar concentrations. However, the use of this system for in vivo therapeutic applications with therapeutic nucleic acids is restricted to hepatic targets, since ASGPR is expressed in vivo exclusively in hepatocytes.

human TfR = biological target: T1, human TfR (Homo sapiens, UniProt P02786); assay: Flow cytometry apparent Kd (Kd app) on CHO cells expressing hTfR fused to EGFP; type: binding; details: bioconjugates (siGFPst1, NODAGA, 68Ga), 2 µM to 30 pM, 1 hr at 4°C
T1 construct: expressed in transfected cells
T1 sequence (P02786 whole entry, the tested form may be a part): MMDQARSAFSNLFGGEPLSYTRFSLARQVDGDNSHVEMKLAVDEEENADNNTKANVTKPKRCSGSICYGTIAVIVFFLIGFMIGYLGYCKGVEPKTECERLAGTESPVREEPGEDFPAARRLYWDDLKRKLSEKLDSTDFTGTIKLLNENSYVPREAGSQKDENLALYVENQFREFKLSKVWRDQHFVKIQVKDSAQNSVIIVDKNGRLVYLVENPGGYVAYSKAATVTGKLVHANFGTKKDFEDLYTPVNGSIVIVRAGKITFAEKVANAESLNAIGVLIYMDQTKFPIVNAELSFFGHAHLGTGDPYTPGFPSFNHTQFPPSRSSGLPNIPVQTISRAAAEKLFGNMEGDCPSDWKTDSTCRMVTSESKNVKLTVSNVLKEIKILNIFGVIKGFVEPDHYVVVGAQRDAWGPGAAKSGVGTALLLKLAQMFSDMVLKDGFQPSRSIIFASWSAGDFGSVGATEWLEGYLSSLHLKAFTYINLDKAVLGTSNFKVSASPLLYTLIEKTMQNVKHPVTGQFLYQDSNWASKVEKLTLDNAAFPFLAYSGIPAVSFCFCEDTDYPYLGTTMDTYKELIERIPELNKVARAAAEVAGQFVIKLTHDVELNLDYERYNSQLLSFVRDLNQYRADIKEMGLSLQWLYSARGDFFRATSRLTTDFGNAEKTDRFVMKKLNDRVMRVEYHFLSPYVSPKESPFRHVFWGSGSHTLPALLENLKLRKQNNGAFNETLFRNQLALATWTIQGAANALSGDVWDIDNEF
Experimental: After one wash in PBS/BSA 2%, cells were incubated for 1 hr with an anti-6His tag antibody (mouse), washed twice with PBS/BSA 2%, and incubated for 45 min with an Alexa647-conjugated anti-mouse secondary antibody. […] No labeling of the CHO WT control cells was detected with all the tested VHHs (not shown).
After one wash in PBS/BSA 2%, cells were incubated for 1 hr with an anti-6His tag antibody (mouse), washed twice with PBS/BSA 2%, and incubated for 45 min with an Alexa647-conjugated anti-mouse secondary antibody. […] Fluorescence levels were assessed using an Attune NxT Flow Cytometer (Thermo Fisher Scientific). […] No labeling of the CHO WT control cells was detected with all the tested VHHs (not shown).
The binding properties of VHHs with affinity for the TfR from different species (i.e., human (h), mouse (m) and rhesus monkey (rh)) were tested using flow cytometry, and apparent affinities (Kd app) were determined. […] CHO cell lines expressing the hTfR, mTfR or rhTfR fused to EGFP were saturated with PBS/BSA 2% solution during 30 min to avoid nonspecific binding, followed by incubation with purified VHHs at increasing concentrations for 1 hr. After one wash in PBS/BSA 2%, cells were incubated for 1 hr with an anti-6His tag antibody (mouse), washed twice with PBS/BSA 2%, and incubated for 1 hr with an Alexa647-conjugated anti-mouse secondary antibody. After two last washes in PBS/BSA 2%, cells were fixed by incubation for 15 min with PBS/PFA 2%, washed once with PBS and finally resuspended in PBS. Fluorescence levels were assessed using an Attune NxT flow cytometer (Thermo Fisher Scientific).

GFP [2] = test system: GFP
Experimental: Second, the intrinsic silencing activity of the VHH-siGFPst1 bioconjugate was assessed in living CHO cell lines stably expressing the TfR fused to EGFP (CHO-hTfR-EGFP cells) by transfection of the conjugate at 25 nM using Dharmafect 1 (Dharmacon) for direct delivery into the cytosol. The total cellular amount of GFP was quantified 72 hours post-transfection using flow cytometry. […] In another series of experiments, the VHH A-siGFPst1 conjugate was transfected on CHO-hTfR-EGFP cells at concentrations ranging from 10 nM to 1 pM and the total cellular amount of GFP was quantified 120 hours post-transfection using flow cytometry.

Molecule | reduction of GFP protein levels (GFP [1]; free uptake, 30 nM) | apparent hTfR-binding affinity (Kd app) (human TfR) | GFP protein levels, % of the control levels (GFP [1]; 30 nM with 100X excess of free VHH A, 120 hrs) | GFP protein levels, % of the control levels (GFP [1]; 30 nM with 100X excess of free VHH B, 120 hrs) | competition of the silencing effect (GFP [1]; 30 nM with 100X excess of irrelevant VHH Z, 120 hrs) | reduction of GFP protein levels (GFP [1]; free uptake, 1 µM) | maximum silencing efficiency (GFP [1]; free uptake, continuous 120 hrs) | IC50 (GFP [2]; read-out: IC50 (reduction of GFP protein levels), transfection 10 nM to 1 pM, 120 hours) | maximum silencing efficiency (GFP [2]; transfection 10 nM to 1 pM, 120 hours) | reduction of GFP protein levels (GFP [2]; transfection at 25 nM, 72 hours post-transfection)
B1 | ca. -60% | low nanomolar range | – | – | – | – | – | – | – | –
B2 | ca. 60% | low nanomolar range | 85% | 96% | no competition | ca. -70% | -61.6 ± 2.9% | 0.0504 nM | -90.2% | ca. 85%
B3 | – | low nanomolar range | – | – | – | – | – | – | – | –
B4 | – | low nanomolar range | – | – | – | – | – | – | – | –

Source: patent EP4480965A1, “TRANSFERRIN RECEPTOR-BINDING MOLECULES, CONJUGATES THEREOF AND THEIR USES TO PREVENT OR TREAT CNS DISEASES” (Vect-Horus, priority 2023, dated 2024)
